Data reported in patent US20230212549A1, “COMPOUNDS COMPRISING A […] LIGAND AND USE THEREOF” (priority 2021, published 2023).
One block for each binder: values may come before it. Bridge positions count the residues as written; N and C are the ends.

Columns and labels:
Experiment in all cases: cell-based or functional assay
Cathepsin B, P07858 = biological target: Cathepsin B, P07858
[1] = biological target: Matrix metalloprotease 9 (mutant Q279R), P14780
[2] = biological target: T1, Ubiquitin carboxyl-terminal hydrolase 2, O75604
T1 chain: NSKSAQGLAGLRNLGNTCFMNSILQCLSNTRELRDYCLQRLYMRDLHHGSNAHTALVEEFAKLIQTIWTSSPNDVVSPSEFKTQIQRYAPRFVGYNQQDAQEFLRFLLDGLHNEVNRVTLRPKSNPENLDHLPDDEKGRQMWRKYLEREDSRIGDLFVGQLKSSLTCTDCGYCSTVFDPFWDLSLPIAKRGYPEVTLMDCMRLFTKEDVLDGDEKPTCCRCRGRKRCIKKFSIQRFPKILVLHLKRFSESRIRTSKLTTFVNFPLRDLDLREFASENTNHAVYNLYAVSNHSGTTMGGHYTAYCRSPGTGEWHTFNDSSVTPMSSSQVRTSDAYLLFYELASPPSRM

[3] = biological target: T2, Ubiquitin carboxyl-terminal hydrolase 8, P40818
T2 chain: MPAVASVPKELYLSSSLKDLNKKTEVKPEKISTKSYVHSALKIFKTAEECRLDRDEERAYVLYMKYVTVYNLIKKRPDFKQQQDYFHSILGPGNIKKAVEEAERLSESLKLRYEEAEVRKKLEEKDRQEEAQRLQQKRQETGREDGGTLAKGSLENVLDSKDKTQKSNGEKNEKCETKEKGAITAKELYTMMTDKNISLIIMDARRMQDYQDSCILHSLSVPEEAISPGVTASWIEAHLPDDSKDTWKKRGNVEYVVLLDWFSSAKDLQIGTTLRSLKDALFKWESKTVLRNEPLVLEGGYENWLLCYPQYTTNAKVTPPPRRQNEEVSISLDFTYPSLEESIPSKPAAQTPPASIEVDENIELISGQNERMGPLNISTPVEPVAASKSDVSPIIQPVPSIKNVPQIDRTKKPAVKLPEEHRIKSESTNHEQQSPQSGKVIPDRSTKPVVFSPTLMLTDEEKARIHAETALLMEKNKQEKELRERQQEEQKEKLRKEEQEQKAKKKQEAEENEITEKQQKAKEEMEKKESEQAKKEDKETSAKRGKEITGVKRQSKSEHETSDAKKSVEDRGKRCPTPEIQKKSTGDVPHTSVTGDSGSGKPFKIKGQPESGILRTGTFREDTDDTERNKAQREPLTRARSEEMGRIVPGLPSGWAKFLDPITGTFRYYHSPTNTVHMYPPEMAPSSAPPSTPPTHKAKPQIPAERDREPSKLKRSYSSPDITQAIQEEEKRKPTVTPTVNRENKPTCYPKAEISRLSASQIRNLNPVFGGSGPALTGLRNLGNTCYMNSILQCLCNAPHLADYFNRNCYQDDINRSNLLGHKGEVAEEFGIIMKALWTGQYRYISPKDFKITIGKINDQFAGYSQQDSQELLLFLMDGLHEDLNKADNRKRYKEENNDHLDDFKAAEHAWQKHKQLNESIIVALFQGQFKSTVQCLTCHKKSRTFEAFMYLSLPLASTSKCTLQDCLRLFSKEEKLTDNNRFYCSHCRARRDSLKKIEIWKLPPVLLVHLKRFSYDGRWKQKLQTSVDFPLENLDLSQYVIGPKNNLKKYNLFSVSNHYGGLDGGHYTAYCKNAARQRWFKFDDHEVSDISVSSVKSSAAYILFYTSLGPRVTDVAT

COX2(h) (human), P35354 = biological target: T3, COX2(h) (human), P35354
T3 chain: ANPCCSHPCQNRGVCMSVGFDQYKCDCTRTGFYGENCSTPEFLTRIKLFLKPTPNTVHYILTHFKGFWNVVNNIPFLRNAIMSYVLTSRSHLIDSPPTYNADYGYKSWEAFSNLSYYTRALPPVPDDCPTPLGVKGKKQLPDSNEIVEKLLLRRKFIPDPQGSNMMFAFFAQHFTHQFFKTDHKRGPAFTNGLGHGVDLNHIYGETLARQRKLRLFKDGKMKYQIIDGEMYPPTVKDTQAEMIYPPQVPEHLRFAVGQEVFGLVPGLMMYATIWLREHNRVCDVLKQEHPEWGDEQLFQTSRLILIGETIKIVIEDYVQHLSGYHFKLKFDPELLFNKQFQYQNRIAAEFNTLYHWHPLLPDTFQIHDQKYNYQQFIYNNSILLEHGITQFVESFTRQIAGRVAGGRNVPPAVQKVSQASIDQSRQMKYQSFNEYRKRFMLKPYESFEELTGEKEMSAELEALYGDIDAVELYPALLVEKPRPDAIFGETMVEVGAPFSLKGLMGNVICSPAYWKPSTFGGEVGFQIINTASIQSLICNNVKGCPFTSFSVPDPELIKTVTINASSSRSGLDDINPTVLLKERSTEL

DPP9, Q86TI2 = biological target: DPP9, Q86TI2
DPP9, Q86TI2, sequence (Q86TI2 whole entry): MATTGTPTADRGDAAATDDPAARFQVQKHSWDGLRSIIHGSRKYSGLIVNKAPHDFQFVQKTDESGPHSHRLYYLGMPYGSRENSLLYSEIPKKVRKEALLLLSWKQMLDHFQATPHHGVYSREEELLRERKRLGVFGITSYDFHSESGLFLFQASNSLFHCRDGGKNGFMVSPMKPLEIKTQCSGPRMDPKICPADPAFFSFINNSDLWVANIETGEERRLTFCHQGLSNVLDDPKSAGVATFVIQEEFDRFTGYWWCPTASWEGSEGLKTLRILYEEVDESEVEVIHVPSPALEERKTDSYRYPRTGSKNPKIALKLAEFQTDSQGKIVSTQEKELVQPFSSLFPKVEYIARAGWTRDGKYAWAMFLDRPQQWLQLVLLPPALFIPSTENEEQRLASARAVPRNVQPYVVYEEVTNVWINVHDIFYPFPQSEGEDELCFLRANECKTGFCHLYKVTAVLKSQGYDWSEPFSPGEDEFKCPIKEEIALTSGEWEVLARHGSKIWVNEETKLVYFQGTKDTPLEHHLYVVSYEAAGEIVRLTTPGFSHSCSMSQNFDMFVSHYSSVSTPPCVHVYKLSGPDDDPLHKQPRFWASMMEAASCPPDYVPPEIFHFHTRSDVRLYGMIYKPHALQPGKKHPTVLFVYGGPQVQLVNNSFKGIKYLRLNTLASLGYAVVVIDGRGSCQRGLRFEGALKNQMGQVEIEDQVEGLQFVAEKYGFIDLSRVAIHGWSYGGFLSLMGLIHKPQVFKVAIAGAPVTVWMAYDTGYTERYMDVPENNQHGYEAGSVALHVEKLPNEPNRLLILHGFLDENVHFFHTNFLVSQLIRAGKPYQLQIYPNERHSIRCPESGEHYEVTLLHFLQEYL

Caspase-3, P42574 = biological target: T4, Caspase-3, P42574
T4 chain: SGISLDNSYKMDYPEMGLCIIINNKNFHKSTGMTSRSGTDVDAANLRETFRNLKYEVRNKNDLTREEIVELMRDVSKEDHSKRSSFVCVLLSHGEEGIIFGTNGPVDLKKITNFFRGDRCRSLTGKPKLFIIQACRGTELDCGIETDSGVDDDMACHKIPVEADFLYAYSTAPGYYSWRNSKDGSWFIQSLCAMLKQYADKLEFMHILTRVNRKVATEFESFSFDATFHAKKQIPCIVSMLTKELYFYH

[4] = biological target: Lek kinase (h) (human), P06239
Lek kinase (h) (human), P06239, sequence (P06239 whole entry): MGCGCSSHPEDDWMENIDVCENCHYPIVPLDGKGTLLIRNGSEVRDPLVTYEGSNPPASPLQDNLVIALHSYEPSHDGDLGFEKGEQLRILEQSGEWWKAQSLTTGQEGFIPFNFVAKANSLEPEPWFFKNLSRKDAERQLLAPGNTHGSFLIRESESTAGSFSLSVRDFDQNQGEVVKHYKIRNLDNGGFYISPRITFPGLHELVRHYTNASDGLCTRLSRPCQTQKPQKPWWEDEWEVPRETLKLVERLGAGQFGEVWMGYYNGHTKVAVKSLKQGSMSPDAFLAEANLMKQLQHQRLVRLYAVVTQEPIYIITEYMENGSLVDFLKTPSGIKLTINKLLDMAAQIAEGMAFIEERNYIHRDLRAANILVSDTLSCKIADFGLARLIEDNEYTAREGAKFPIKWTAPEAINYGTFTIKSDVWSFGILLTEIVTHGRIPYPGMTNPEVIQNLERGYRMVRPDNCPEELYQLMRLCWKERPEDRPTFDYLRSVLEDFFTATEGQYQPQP

Caspase-6, P55212 = biological target: T5, Caspase-6, P55212
T5 chain: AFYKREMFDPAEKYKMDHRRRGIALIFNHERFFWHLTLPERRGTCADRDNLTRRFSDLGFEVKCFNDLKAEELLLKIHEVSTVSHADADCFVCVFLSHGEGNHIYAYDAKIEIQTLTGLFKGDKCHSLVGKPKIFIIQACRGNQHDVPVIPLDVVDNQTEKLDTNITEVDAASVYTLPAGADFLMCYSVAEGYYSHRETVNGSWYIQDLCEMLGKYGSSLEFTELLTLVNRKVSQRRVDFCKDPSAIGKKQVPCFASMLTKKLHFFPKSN

Matrix metalloprotease 9 (mutant Q279R), P14780, sequence (P14780 107-707 Q279R): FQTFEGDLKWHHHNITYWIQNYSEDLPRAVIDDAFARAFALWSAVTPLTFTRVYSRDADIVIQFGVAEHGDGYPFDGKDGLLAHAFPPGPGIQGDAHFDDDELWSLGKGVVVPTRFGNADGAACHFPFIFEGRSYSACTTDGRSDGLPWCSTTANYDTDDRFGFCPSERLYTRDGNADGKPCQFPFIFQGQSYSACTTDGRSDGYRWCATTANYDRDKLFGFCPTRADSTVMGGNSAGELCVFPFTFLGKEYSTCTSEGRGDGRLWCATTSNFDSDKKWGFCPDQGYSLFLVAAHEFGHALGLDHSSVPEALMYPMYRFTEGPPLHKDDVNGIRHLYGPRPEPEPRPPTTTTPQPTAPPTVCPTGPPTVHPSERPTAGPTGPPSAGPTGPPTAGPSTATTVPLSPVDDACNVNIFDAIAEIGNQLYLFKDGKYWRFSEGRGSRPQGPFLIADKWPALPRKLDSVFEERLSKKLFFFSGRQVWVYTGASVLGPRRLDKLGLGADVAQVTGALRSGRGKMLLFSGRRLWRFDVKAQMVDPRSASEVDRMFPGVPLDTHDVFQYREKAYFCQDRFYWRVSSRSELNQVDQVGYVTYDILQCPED

- Percentage inhibition (%) at 1 µM (Cathepsin B, P07858): 1%
- Percentage inhibition (%) at 10 µM (Cathepsin B, P07858): 2%
- Percentage inhibition (%) at 1 µM [1]: 3%
- Percentage inhibition (%) at 10 µM [1]: 2%
- Percentage inhibition (%) at 1 µM [2]: 0%
- Percentage inhibition (%) at 10 µM [2]: -1%
- Percentage inhibition (%) at 1 µM [3]: 2%
- Percentage inhibition (%) at 10 µM [3]: 1%
- % inhibition of control enzyme activity, compound at 10 µM (COX2(h) (human), P35354): -22%
- Percentage inhibition (%) at 1 µM (DPP9, Q86TI2): -1%
- Percentage inhibition (%) at 10 µM (DPP9, Q86TI2): -5%
- Percentage inhibition (%) at 1 µM (Caspase-3, P42574): -2%
- Percentage inhibition (%) at 10 µM (Caspase-3, P42574): -1%
- % inhibition of control enzyme activity, compound at 10 µM [4]: -4%
- Percentage inhibition (%) at 1 µM (Caspase-6, P55212): 6%
- Percentage inhibition (%) at 10 µM (Caspase-6, P55212): -3%
B1: Hex-[Cys(tMeBn(DOTA-AET))-Pro-Pro-Thr-Gln-Phe-Cys]-OH (peptide)
peptide: Hex-CPPTQFC-OH
modifications: bridge 1-7; not fully specified (bridges); printed as Hex-[Cys(tMeBn(DOTA-AET))-Pro-Pro-Thr-Gln-Phe-Cys]-OH

B2: Hex-[Cys(tMeBn(DOTA-PP))-Pro-Pro-Thr-Gln-Phe-Cys]-Asp-NH2 (peptide)
peptide: Hex-CPPTQFCD-NH2
modifications: bridge 1-7; not fully specified (bridges); printed as Hex-[Cys(tMeBn(DOTA-PP))-Pro-Pro-Thr-Gln-Phe-Cys]-Asp-NH2
- Percentage inhibition (%) at 1 µM (Cathepsin B, P07858): 26%
- Percentage inhibition (%) at 10 µM (Cathepsin B, P07858): 36%
- Percentage inhibition (%) at 1 µM [1]: 3%
- Percentage inhibition (%) at 10 µM [1]: 2%
- Percentage inhibition (%) at 1 µM [2]: 3%
- Percentage inhibition (%) at 10 µM [2]: 7%
- Percentage inhibition (%) at 1 µM [3]: -3%
- Percentage inhibition (%) at 10 µM [3]: 6%
- % inhibition of control enzyme activity, compound at 10 µM (COX2(h) (human), P35354): -14%
- Percentage inhibition (%) at 1 µM (DPP9, Q86TI2): -1%
- Percentage inhibition (%) at 10 µM (DPP9, Q86TI2): 0%
- Percentage inhibition (%) at 1 µM (Caspase-3, P42574): 1%
- Percentage inhibition (%) at 10 µM (Caspase-3, P42574): -2%
- % inhibition of control enzyme activity, compound at 10 µM [4]: 10%
- Percentage inhibition (%) at 1 µM (Caspase-6, P55212): 1%
- Percentage inhibition (%) at 10 µM (Caspase-6, P55212): -1%
